Laboratory results taken from PMC2120337.

Target: bacterially expressed beta18 (Drosophila)
Test: chymotrypsin protection

bacterially expressed beta18 (Drosophila), sequence (Q00963 whole entry): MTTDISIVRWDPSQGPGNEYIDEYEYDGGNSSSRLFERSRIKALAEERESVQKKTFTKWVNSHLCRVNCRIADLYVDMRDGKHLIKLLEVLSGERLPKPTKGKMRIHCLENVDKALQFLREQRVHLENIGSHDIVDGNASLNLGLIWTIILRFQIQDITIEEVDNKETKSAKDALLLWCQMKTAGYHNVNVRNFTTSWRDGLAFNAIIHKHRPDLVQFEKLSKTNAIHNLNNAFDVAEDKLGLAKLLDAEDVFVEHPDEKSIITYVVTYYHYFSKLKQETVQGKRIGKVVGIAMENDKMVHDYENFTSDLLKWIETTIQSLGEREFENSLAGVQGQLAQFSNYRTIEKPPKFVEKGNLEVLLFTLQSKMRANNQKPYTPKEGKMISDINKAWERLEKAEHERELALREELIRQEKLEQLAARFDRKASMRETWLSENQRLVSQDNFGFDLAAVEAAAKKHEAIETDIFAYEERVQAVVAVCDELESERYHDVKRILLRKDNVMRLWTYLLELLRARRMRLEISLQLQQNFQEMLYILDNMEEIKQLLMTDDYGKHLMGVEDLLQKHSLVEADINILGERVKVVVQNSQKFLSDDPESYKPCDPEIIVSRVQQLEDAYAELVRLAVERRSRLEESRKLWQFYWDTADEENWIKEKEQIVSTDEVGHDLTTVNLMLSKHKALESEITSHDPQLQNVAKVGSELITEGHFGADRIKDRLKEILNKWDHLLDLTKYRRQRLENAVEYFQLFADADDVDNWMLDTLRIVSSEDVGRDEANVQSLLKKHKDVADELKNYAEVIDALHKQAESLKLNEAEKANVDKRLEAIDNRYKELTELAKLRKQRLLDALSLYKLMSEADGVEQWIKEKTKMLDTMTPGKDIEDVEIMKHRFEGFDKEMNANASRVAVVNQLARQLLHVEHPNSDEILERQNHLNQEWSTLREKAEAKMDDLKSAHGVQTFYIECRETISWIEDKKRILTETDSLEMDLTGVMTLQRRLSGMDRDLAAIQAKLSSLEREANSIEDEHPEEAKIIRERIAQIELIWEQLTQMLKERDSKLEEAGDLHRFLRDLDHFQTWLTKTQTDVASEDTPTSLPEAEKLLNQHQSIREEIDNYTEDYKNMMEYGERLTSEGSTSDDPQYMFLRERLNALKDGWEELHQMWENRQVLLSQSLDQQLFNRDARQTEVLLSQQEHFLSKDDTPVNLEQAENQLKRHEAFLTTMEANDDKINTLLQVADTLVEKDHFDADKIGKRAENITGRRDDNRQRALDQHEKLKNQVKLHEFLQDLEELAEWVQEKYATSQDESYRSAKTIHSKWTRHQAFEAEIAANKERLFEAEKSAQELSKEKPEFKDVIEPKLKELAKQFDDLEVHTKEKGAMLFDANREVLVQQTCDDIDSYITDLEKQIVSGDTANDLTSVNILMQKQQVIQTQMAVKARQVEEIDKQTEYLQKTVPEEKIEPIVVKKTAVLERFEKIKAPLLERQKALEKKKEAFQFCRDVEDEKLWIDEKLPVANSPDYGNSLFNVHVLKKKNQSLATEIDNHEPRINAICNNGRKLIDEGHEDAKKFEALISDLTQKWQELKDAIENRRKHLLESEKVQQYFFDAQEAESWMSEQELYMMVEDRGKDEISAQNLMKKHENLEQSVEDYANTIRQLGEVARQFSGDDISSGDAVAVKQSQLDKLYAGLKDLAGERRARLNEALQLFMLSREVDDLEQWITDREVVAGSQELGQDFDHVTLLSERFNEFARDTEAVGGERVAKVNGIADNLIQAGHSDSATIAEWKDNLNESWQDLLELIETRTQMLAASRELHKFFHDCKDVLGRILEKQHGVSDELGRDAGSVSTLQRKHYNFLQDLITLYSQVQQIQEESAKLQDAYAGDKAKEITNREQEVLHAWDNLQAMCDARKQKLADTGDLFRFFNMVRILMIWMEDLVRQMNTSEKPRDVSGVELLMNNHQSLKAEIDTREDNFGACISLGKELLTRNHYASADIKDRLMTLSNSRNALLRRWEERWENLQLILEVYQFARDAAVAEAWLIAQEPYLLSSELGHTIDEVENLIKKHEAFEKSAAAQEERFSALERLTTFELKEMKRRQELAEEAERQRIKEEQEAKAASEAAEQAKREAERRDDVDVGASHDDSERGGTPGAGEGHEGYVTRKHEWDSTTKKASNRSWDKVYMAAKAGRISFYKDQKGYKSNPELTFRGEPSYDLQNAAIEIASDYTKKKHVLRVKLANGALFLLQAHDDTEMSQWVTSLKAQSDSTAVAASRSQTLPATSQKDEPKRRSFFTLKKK

B1: bacterially expressed alpha0-1(R22S) (domain or fragment)
chain: MENFTPKEVKILETVEDIQERSEQVLSRYNDFKIETRQKREKLEDSRRFQYFKRDADELESWIHEKLQAASEESYRDPTNLQAKIQKHQAFEAEVSAHSNAIVSLDNTGQEMINQQHFASESIQVRLDELHKLWELLLSRLAEKGLKLQQ
Binder B1 has a percent intact (chymotrypsin protection, beta18 present) of 61.2%.
